Data: patent US20260234660A1, “TREATMENT OF MUSCLE RELATED DISORDERS WITH ANTI-HUMAN CACNG1 ANTIBODIES” (Regeneron Pharmaceuticals, Inc., priority 2023, published 2026)

Assays:
[1] = molecular target: human CACNG1, cell surface-expressed (human) (UniProt Q06432)
[2] = molecular target: human CACNG1, cell surface-expressed (human) (UniProt Q06432); remark: listed apart in the source
[3] = molecular target: human CACNG1, cell surface-expressed (human) (UniProt Q06432); remark: listed apart in the source

human CACNG1, cell surface-expressed (human), sequence (Q06432 whole entry): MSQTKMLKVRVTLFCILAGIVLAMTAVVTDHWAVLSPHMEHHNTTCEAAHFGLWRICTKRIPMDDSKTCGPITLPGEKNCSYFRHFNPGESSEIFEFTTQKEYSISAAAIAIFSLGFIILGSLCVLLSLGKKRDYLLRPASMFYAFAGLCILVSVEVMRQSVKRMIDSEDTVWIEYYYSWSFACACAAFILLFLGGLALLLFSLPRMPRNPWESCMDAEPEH

B1: REGN14571-M3004 (antibody, from a related filing, V domains shown, part only)
VH: QVQLQESGPGLVKPSETLSLTCTVSGDSINNYYWTWLRQPPGKGLEWIGYIYYSGSANYNPSLKSRVTISVDTSKNQFSLKLNSVTAADTAVYYCARGAVKYFRHWGQGTLVTVSS
VL: EIVLTQSPGTLSLSPGERATLSCRASQTINHNNLAWYQQRPGQAPRLLIYGASNRATAIPDRFSGSGSGTDFTLTISRLEPEDFEVYSCQQYGSLPLTFGGGTKVEIKR
How did the EC50; androgen receptor luciferase reporter (RLU), hCACNG1.AR.Luc LNCaP cells, 24 hours [1] turn out when B1 was run?
Its EC50; androgen receptor luciferase reporter (RLU), hCACNG1.AR.Luc LNCaP cells, 24 hours is 7.83 nM.

What about the EC50; androgen receptor luciferase reporter (RLU), hCACNG1.AR.Luc LNCaP cells, 48 hours [2] of the same binder?
Its EC50; androgen receptor luciferase reporter (RLU), hCACNG1.AR.Luc LNCaP cells, 48 hours is 6.95 nM.

What about the EC50; androgen receptor luciferase reporter (RLU), hCACNG1.AR.Luc LNCaP cells, 72 hours [3] of the same binder?
Its EC50; androgen receptor luciferase reporter (RLU), hCACNG1.AR.Luc LNCaP cells, 72 hours is 5.44 nM.
